Measurements published in patent publication US20210024639A1 (AGOMAB THERAPEUTICS, published 2021).

What was measured:
[1] = biological target: T1, human MET extracellular domain (ECD) (human, UniProt P08581 25-932); assay: ELISA, periplasmic Fab on MET ECD
T1 construct: range 1-932; recombinant ECD; also called hMET; human MET ECD
Protocol: (§1) Fab-expressing phages from the libraries described above were produced according to standard phage display protocols. For selection, phages were first adsorbed to immobilized recombinant human MET ECD, washed, and then eluted using trypsin. After two cycles of selection with human MET ECD, two other cycles were performed in the same fashion using mouse MET ECD. In parallel, we also selected phages alternating a human MET ECD cycle with a mouse MET ECD cycle, for a total of four cycles. Phages selected by the two approaches were pooled together and then used to infect TG1 E. coli. Individual colonies were isolated and secretion of Fabs was induced using IPTG (Fermentas). The Fab-containing periplasmic fraction of bacteria was collected and tested for its ability to bind human and mouse MET ECD by Surface Plasmon Resonance (SPR). Human or mouse MET ECD was immobilized on a CM-5 chip using amine coupling in sodium acetate buffer (GE Healthcare). The Fab-containing periplasmic extracts were loaded into a BIACORE 3000 apparatus (GE Healthcare) with a flow rate of 30 μl/min. The Fab off-rates (koff) were measured over a two minute period. Binding of Fabs to human and mouse MET was further characterized by ELISA using MET ECD in solid phase and periplasmic crude extract in solution.
(§2) TABLE 7 Fabs binding to both human MET (hMET) and mouse MET (mMET). Fabs are grouped in families based on their VH CDR3 sequence. Binding of Fabs to human and mouse MET ECD was determined by Surface Plasmon Resonance (SPR) and by ELISA. SPR values represent the koff (s⁻¹). ELISA values represent the Optical Density (OD) at 450 nm (AU, arbitrary units). Both SPR and ELISA were performed using crude periplasmic extracts. Fab concentration in the extract was not determined. Values are the mean of three independent measurements.

[2] = biological target: T2, mouse MET extracellular domain (ECD) (mouse, UniProt P16056 25-931); assay: ELISA, periplasmic Fab on MET ECD
T2 construct: range 1-931; recombinant ECD; also called mMET; mouse MET ECD
Protocol: as §1, §2

T2 sequence (P16056 25-931 limits assumed, form in doubt): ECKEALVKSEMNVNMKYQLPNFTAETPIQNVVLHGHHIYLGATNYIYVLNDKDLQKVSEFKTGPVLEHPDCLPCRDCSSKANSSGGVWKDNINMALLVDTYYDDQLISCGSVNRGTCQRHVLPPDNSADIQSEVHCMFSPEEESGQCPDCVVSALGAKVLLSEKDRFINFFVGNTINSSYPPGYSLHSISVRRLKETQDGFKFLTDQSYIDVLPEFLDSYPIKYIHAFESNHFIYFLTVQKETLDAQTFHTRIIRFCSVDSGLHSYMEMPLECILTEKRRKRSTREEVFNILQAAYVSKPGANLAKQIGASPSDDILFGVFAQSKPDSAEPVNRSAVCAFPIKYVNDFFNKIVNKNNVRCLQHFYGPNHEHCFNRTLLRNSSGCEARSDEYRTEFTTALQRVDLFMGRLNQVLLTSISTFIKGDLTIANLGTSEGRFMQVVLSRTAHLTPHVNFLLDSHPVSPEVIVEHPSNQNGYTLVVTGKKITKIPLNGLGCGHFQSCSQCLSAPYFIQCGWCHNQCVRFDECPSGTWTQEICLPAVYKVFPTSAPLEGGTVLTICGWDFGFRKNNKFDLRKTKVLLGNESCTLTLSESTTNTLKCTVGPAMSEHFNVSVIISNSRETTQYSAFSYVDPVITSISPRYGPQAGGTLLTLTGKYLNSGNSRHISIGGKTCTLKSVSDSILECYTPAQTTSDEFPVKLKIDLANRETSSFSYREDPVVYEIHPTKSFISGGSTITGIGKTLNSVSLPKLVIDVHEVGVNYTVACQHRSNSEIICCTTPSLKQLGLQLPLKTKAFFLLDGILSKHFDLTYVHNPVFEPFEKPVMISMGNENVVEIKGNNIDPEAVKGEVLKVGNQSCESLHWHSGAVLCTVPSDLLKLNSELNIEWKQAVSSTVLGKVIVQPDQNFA
T1 sequence (P08581 25-932 limits assumed, form in doubt): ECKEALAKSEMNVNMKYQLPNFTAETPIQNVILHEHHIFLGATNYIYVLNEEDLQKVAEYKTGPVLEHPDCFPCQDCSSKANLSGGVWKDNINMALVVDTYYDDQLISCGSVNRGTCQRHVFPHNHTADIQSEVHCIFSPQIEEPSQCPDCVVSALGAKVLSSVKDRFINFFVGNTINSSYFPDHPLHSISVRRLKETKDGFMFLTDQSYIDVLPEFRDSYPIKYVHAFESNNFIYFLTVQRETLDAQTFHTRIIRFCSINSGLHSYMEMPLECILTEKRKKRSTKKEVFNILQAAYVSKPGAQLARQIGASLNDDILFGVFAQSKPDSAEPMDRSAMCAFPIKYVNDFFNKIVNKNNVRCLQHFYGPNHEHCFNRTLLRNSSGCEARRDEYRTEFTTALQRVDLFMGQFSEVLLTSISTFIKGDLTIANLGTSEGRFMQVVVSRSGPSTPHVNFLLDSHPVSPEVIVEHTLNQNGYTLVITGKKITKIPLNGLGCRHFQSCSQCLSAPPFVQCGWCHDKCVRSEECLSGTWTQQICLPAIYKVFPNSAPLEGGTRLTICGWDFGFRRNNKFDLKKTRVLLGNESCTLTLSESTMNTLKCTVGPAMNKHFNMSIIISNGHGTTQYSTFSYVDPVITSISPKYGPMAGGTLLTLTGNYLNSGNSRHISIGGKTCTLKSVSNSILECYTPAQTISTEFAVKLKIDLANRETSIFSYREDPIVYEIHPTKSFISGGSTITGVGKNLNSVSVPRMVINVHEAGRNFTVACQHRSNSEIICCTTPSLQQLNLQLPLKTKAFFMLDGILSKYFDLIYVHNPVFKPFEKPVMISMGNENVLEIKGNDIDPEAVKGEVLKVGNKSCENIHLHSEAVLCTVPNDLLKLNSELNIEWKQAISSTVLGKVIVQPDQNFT

Binder	ELISA OD450 [1]	ELISA OD450 [2]
Fab 71D6 (Fab, V domains shown, llama Fab (VH-CH1, lambda VL-CL) with MYC flag, crude periplasmic extract) VH: ELQLVESGGGLVQPGGSLRLSCAASGFTFSSYGMSWVRQAPGKGLEWVSAINSYGGSTSYADSVKGRFTISRDNAKNTLYLQMNSLKPEDTAVYYCAKEVRADLSRYNDYESYDYWGQGTQVTVSS VL: QPVLNQPSALSVTLGQTAKITCQGGSLGARYAHWYQQKPGQAPVLVIYDDDSRPSGIPERFSGSSSGGTATLTISGAQAEDEGDYYCQSADSSGSVFGGGTHLTVL	3.26 AU	3.07 AU
Fab 71C3 (Fab, V domains shown, llama Fab (VH-CH1, lambda VL-CL) with MYC flag, crude periplasmic extract) VH: QLQLVESGGGLVQPGGSLRLSCAASGFTFSSHAMSWVRQAPGKGLEWVSAINSGGGSTSYADSVKGRFTISRDNAKNTLYLQMNSLKPEDTAVYYCAKELRFDLARYTDYEAWDYWGQGTQVTVSS VL: SYELTQPSALSVTLGQTAKITCQGGSLGSSYAHWYQQKPGQAPVLVIYDDDSRPSGIPERFSGSSSGGTATLTISGAQAEDEGDYYCQSADSSGNAAVFGGGTHLTVL	1.65 AU	1.64 AU
Fab 71D4 (Fab, V domains shown, llama Fab (VH-CH1, lambda VL-CL) with MYC flag, crude periplasmic extract) VH: ELQLVESGGGLVQPGGSLRLSCAASGFTFSGYGMSWVRQAPGKGLEWVSDINSGGGSTSYADSVKGRFTISRDNAKNTLYLQMNSLKPEDTAVYYCAKDMRLYLARYNDYEAWDYWGQGTQVTVSS VL: SSALTQPSALSVTLGQTAKITCQGGSLGSSYAHWYQQKPGQAPVLVIYDDDSRPSGIPERFSGSSSGGTATLTISGAQAEDEGDYYCQSADSSGNAAVFGGGTHLTVL	0.311 AU	0.307 AU
Fab 71G2 (Fab, V domains shown, llama Fab (VH-CH1, lambda VL-CL) with MYC flag, crude periplasmic extract) VH: EVQLQESGGGLVQPGGSLRLSCAASGFTFSIYDMSWVRQAPGKGLEWVSTINSDGSSTSYVDSVKGRFTISRDNAKNTLYLQMNSLKPEDTAVYYCAKVYGSTWDVGPMGYGMDYWGKGTLVTVSS VL: SSALTQPSALSVSLGQTARITCQGGSLGSSYAHWYQQKPGQAPVLVIYGDDSRPSGIPERFSGSSSGGTATLTISGAQAEDEDDYYCQSTDSSGNTVFGGGTRLTVL	0.561 AU	0.543 AU
Fab 72F8 (Fab, V domains shown, llama Fab (VH-CH1, lambda VL-CL) with MYC flag, crude periplasmic extract) VH: ELQLVESGGGLVQPGGSLRLSCAASGFTFSNYVMSWVRQAPGKGLEWVSDTNSGGSTSYADSVKGRFTISRDNAKNTLYLQMNSLKPEDTALYYCARSFFYGMNYWGKGTQVTVSS VL: QSALTQPPSLSASPGSSVRLTCTLSSGNNIGSYDISWYQQKAGSPPRYLLNYYTDSRKHQDSGVPSRFSGSKDASANAGLLLISGLQPEDEADYYCSAYKSGSYRWVFGGGTHVTVL	3.38 AU	3.08 AU
Fab 71G3 (Fab, V domains shown, llama Fab (VH-CH1, lambda VL-CL) with MYC flag, crude periplasmic extract) VH: QVQLVESGGGLVQPGGSLRVSCAASGFTFSTYYMSWVRQAPGKGLEWVSDIRTDGGTYYADSVKGRFTMSRDNAKNTLYLQMNSLKPEDTALYYCARTRIFPSGYDYWGQGTQVTVSS VL: QAVVTQEPSLSVSPGGTVTLTCGLSSGSVTTSNYPGWFQQTPGQAPRTLIYNTNSRHSGVPSRFSGSISGNKAALTIMGAQPEDEADYYCSLYPGSTTVFGGGTHLTVL	3.46 AU	3.44 AU
Fab 76G7 (Fab, V domains shown, llama Fab (VH-CH1, lambda VL-CL) with MYC flag, crude periplasmic extract) VH: QVQLVESGGNLVQPGGSLRLSCAASGFTFSNYYMSWVRQAPGKGLEWVSDIYSDGSTTWYSDSVKGRFTISRDNAKNTLSLQMNSLKSEDTAVYYCARVKIYPGGYDAWGQGTQVTVSS VL: QAGLTQPPSVSGSPGKTVTISCAGNSSDVGYGNYVSWYQQFPGMAPKLLIYLVNKRASGITDRFSGSKSGNTASLTISGLQSEDEADYYCASYTGSNNIVFGGGTHLTVL	3.2 AU	3.08 AU
Fab 71A3 (Fab, V domains shown, llama Fab (VH-CH1, lambda VL-CL) with MYC flag, crude periplasmic extract) VH: EVQLVESGGGLVQPGGSLRLSCAASGFSFKDYDITWVRQAPGKGLEWVSTITSRSGSTSYVDSVKGRFTISGDNAKNTLYLQMNSLKPEDTAVYYCAKVYATTWDVGPLGYGMDYWGKGTLVTVSS VL: SYELTQPSALSVTLGQTAKITCQGGSLGSSYAHWYQQKPGQAPVLVIYDDDSRPSGIPERFSGSSSGGTATLTISGAQAEDEGDYYCQSADSSGNAAVFGGGTHLTVL	0.581 AU	0.524 AU
Fab 76H10 (Fab, V domains shown, llama Fab (VH-CH1, lambda VL-CL) with MYC flag, crude periplasmic extract) VH: QLQLVESGGGLVQPGGSLRVSCTASGFTFNTYYMTWVRQAPGKGLEWVSDINSGGGTYYADSVKGRFTISRDNAKNTLYLQMNSLKPEDTALYYCVRVRIWPVGYDYWGQGTQVTVSS VL: QAVVTQEPSLSVSPGGTVTLTCGLSSGSVTTSNYPGWFQQTPGQAPRTLIYNTNNRHSGVPSRFSGSISGNKAALTITGAQPEDEADYYCSLYTGSYTTVFGGGTHLTVL	3.7 AU	3.7 AU
Fab 74C8 (Fab, V domains shown, llama Fab (VH-CH1, lambda VL-CL) with MYC flag, crude periplasmic extract) VH: EVQLVESGGGLVQPGGSLRLSCAASGFTFRNYHMSWVRQVPGKGFEWISDINSAGGSTYYADSVKGRFTISRDNAKNTLYLEMNSLKPEDTALYYCARVNVWGVNYWGKGTLVSVSS VL: QTVVTQEPSLSVSPGGTVTLTCGLSSGSVTTSNYPGWFQQTPGQAPRTLIYNTNSRHSGVPSRFSGSISGNKAALTITGAQPEDEADYYCSLYPGSYTNVFGGGTHLTVL	2.98 AU	2.92 AU
